Laboratory results published in patent publication US20250145711A1 (Janssen / Centocor, published 2025).

Columns and labels:
[1] = molecular target: T1, TRCW5 antigen (CD3δε-Fc-Avi) (biotinylated (site not stated)); experiment: ELISA after heat
T1 construct: also called recombinant CD3

[2] = molecular target: T2, CD3 on primary human pan T cells (human, UniProt P07766 23-207); experiment: flow cytometry, pan T-cells
T2 construct: on cells it stands in the TCR/CD3 complex; also called Pan T-cells (CD3-positive); endogenous CD3
T2 sequence (P07766 23-207 limits assumed): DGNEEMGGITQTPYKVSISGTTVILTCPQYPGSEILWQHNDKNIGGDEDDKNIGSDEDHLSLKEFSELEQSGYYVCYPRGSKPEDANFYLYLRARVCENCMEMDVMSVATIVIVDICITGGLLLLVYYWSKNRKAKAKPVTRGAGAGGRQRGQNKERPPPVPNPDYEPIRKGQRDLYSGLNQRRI
Procedure: ELISA assays for binding to recombinant CD3 (TRCW5, SEQ ID NO: 39) were performed as above. Cell binding was performed using primary human T cell and Jurkat cells by flow cytometry. Briefly, E. coli expressed anti CD3 ScFv supernatants, either at room temperature, or 55° C., 60° C. or 65° C. heat treated samples.
Pan T-cells (CD3-positive) and Jurkat-CD3-negative cells were prepared by staining Jurkat-CD3-negative cells with CFSE while keeping pan T-cells unstained. Jurkat-CD3-negative cell suspensions were resuspended at 20 million cells per each 50 mL conical tube. Cells were harvested by centrifugation at 400×g for 5 minutes and resuspended in DPBS followed by washing 2× in DPBS. Cells were stained with 1:25,000 dilution for a final dye concentration of 0.02 uM CFSE (2 uL of staining solution to 50 mL of cell suspension). Cells were incubated for 10 minutes at room temperature and centrifuged for 5 minutes at 400×g. After removal of supernatant, 3 mL of HI-FBS were added to the cell pellet, mixed and centrifuged for 5 min at 400×g. Supernatant was removed and cells were resuspended in BD stain buffer at 2×10\hat{ }6 cells/mL and incubated on ice or 4 C protected from light. Human pan T cells were thawed at 37 C and transferred gently into a conical tube containing 15 mL of warm or RT culture media (RPMI+10% FBS). […] Cells were harvested by centrifugation at 400×g for 5 min and resuspended in culture media (RPMI+10% HI-FBS). Pan T-cells (without staining) were prepared at 2×10\hat{ }6 cells/mL in flow staining buffer. Equal volumes of CFSE stained Jurkat-CD3-negative cells and unstained T-cells (CD3-positive) cells were mixed and plated 50 uL/well into assay plates. 50 uL/well neat bacterial supernatant samples and control sample (CD3W36 ScFv) were added to each well and plates were incubated 1 hr at 4 C or. Cells were harvested by centrifugation at 400×g for 4 min and 150 uL staining buffer were added to all wells, followed by centrifugation at 400×g for 4 min to pellet cells. To each well, 150 uL staining buffer were added followed by centrifugation at 400×g for 4 minutes to pellet cells.

T1 sequence (chain, as listed by the source mutant limits assumed): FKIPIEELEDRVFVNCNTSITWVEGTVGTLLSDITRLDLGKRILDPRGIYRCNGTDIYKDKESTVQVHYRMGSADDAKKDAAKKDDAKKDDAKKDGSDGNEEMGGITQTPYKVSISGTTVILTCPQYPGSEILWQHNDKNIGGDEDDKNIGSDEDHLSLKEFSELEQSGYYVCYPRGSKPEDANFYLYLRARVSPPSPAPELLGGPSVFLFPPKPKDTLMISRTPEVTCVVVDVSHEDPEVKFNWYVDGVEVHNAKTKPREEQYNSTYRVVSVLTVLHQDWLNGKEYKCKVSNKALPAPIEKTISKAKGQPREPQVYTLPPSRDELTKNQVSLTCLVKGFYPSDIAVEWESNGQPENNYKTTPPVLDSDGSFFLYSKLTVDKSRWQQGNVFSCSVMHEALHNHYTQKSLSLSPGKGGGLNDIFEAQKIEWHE

| % Retained 55° C. [1] [%] | % Retained 60° C. [1] [%] | % Retained 65° C. [1] [%] | % Binding retained on T-cells, 55° C. [2] [fraction] | % Binding retained on T-cells, 60° C. [2] [fraction] | % Binding retained on T-cells, 65° C. [2] [fraction] | % Binding retained on T-cells, RT [2] [fraction] | Binder |
| --- | --- | --- | --- | --- | --- | --- | --- |
| 115 | 112 | 48 | 1.14 | 1.33 | 0.156 | 1 | CD3B2065 (scFv) scFv: QVQLVQSGAEVKKPGSSVKVSCKASGYTFTRSTMHWVKQAPGQGLEWIGYINPSSAYTNYAQKFQGRVTLTADKSTSTAYMELSSLRSEDTAVYYCASPQVHYDYNGFPYWGQGTLVTVSSGGSEGKSSGSGSESKSTGGSEIVLTQSPATLSASPGERVTLSCSASSSVSYMNWYQQKPGQAPRRWIYDSSKLASGVPARFSGSGSGRDYTLTISSLEPEDFAVYYCQQWSRNPPTFGGGTKVEIK |
| 112 | 114 | 38 | 1.04 | 1.2 | 0.102 | 1 | CD3B2081 (scFv) scFv: QVQLVQSGAEVKKPGSSVKVSCKASGYTFTRSTMHWVRQAPGQGLEWIGYINPSSAYTNYAQKFQGRVTLTADKSTSTAYMELSSLRSEDTAVYYCASPQVHYDYNGFPYWGQGTLVTVSSGGSEGKSSGSGSESKSTGGSEIVLTQSPATLSASPGERVTLSCSASSSVSYMNWYQQKPGQAPRRWIYDSSKLASGVPARFSGSGSGRDYTLTISSLEPEDFAVYYCQQWSRNPPTFGGGTKVEIK |
| 109 | 108 | 17 | 1.07 | 1.13 | 0.0573 | 1 | CD3B2080 (scFv) scFv: QVQLVQSGAEVKKPGSSVKVSCKASGYTFTRSTMHWVRQAPGQGLEWIGYINPSSAYTNYAQKFQGRVTLTADKSTSTAYMELSSLRSEDTAVYYCASPQVHYDYNGFPYWGQGTLVTVSSGGSEGKSSGSGSESKSTGGSEIVLTQSPATLSASPGERVTLSCSASSSVSYMNWYQQKPGQSPRRWIYDSSKLASGVPARFSGSGSGRDYTLTISSLEPEDFAVYYCQQWSRNPPTFGGGTKVEIK |
| 111 | 92 | 2 | 1.06 | 0.979 | 0.116 | 1 | CD3B2079 (scFv) scFv: QVQLVQSGAEVKKPGSSVKVSCKASGYTFTRSTMHWVRQAPGQGLEWIGYINPSSAYTNYAQKFQGRVTLTADKSTSTAYMELSSLRSEDTAVYYCASPQVHYDYNGFPYWGQGTLVTVSSGGSEGKSSGSGSESKSTGGSEIVLTQSPATLSASPGERVTLSCSASSSVSYMNWYQQKPGTAPRRLIYDSSKLASGVPARFSGSGSGRDYTLTISSLEPEDFAVYYCQQWSRNPPTFGGGTKVEIK |
| 107 | 88 | 2 | 1.01 | 0.762 | 0.0574 | 1 | CD3B2078 (scFv) scFv: QVQLVQSGAEVKKPGSSVKVSCKASGYTFTRSTMHWVRQAPGQGLEWIGYINPSSAYTNYAQKFQGRVTLTADKSTSTAYMELSSLRSEDTAVYYCASPQVHYDYNGFPYWGQGTLVTVSSGGSEGKSSGSGSESKSTGGSEIVLTQSPATLSASPGERVTLSCSASSSVSYMNWYQQKPGTSPRRLIYDSSKLASGVPARFSGSGSGRDYTLTISSLEPEDFAVYYCQQWSRNPPTFGGGTKVEIK |
| 113 | 110 | 27 | 0.993 | 1.1 | 0.348 | 1 | CD3B2073 (scFv) scFv: QVQLVQSGAEVKKPGSSVKVSCKASGYTFTRSTMHWVRQAPGQGLEWMGYINPSSAYTNYNQKFQGRVTLTADKSTSTAYMELSSLRSEDTAVYYCASPQVHYDYNGFPYWGQGTLVTVSSGGSEGKSSGSGSESKSTGGSEIVLTQSPATLSASPGERVTLSCSASSSVSYMNWYQQKPGQAPRRWIYDSSKLASGVPARFSGSGSGRDYTLTISSLEPEDFAVYYCQQWSRNPPTFGGGTKVEIK |
| 114 | 116 | 9 | 1.11 | 0.682 | 0.276 | 1 | CD3B2082 (scFv) scFv: QVQLVQSGAEVKKPGSSVKVSCKASGYTFTRSTMHWVRQAPGQGLEWMGYINPSSAYTNYAQKFQGRVTLTADKSTSTAYMELSSLRSEDTAVYYCASPQVHYDYNGFPYWGQGTLVTVSSGGSEGKSSGSGSESKSTGGSEIVLTQSPATLSASPGERVTLSCSASSSVSYMNWYQQKPGTSPRRWIYDSSKLASGVPARFSGSGSGRDYTLTISSLEPEDFAVYYCQQWSRNPPTFGGGTKVEIK |
| 114 | 109 | 17 | 1.08 | 1.48 | 0.11 | 1 | CD3B2069 (scFv) scFv: QVQLVQSGAEVKKPGSSVKVSCKASGYTFTRSTMHWVRQAPGQGLEWMGYINPSSAYTNYNQKFQGRVTLTADKSTSTAYMELSSLRSEDTAVYYCASPQVHYDYNGFPYWGQGTLVTVSSGGSEGKSSGSGSESKSTGGSEIVLTQSPATLSASPGERVTLSCSASSSVSYMNWYQQKPGTAPRRWIYDSSKLASGVPARFSGSGSGRDYTLTISSLEPEDFAVYYCQQWSRNPPTFGGGTKVEIK |
| 117 | 111 | 17 | 0.872 | 1.27 | 0.0933 | 1 | CD3B2072 (scFv) scFv: QVQLVQSGAEVKKPGSSVKVSCKASGYTFTRSTMHWVRQAPGQGLEWMGYINPSSAYTNYNQKFQGRVTLTADKSTSTAYMELSSLRSEDTAVYYCASPQVHYDYNGFPYWGQGTLVTVSSGGSEGKSSGSGSESKSTGGSEIVLTQSPATLSASPGERVTLSCSASSSVSYMNWYQQKPGQSPRRWIYDSSKLASGVPARFSGSGSGRDYTLTISSLEPEDFAVYYCQQWSRNPPTFGGGTKVEIK |
| 103 | 88 | 4 | 1.01 | 0.899 | 0.12 | 1 | CD3B2071 (scFv) scFv: QVQLVQSGAEVKKPGSSVKVSCKASGYTFTRSTMHWVRQAPGQGLEWMGYINPSSAYTNYNQKFQGRVTLTADKSTSTAYMELSSLRSEDTAVYYCASPQVHYDYNGFPYWGQGTLVTVSSGGSEGKSSGSGSESKSTGGSEIVLTQSPATLSASPGERVTLSCSASSSVSYMNWYQQKPGTAPRRLIYDSSKLASGVPARFSGSGSGRDYTLTISSLEPEDFAVYYCQQWSRNPPTFGGGTKVEIK |
| 106 | 107 | 22 | 1.03 | 1.1 | 0.307 | 1 | CD3B2077 (scFv) scFv: QVQLVQSGAEVKKPGSSVKVSCKASGYTFTRSTMHWVRQAPGQGLEWIGYINPSSAYTNYAQKFQGRVTLTADKSTSTAYMELSSLRSEDTAVYYCASPQVHYDYNGFPYWGQGTLVTVSSGGSEGKSSGSGSESKSTGGSEIVLTQSPATLSASPGERVTLSCSASSSVSYMNWYQQKPGTAPRRWIYDSSKLASGVPARFSGSGSGRDYTLTISSLEPEDFAVYYCQQWSRNPPTFGGGTKVEIK |
| 104 | 96 | 5 | 1.01 | 1.12 | 0.0404 | 1 | CD3B2086 (scFv) scFv: QVQLVQSGAEVKKPGSSVKVSCKASGYTFTRSTMHWVRQAPGQGLEWMGYINPSSAYTNYAQKFQGRVTLTADKSTSTAYMELSSLRSEDTAVYYCASPQVHYDYNGFPYWGQGTLVTVSSGGSEGKSSGSGSESKSTGGSEIVLTQSPATLSASPGERVTLSCSASSSVSYMNWYQQKPGTSPRRLIYDSSKLASGVPARFSGSGSGRDYTLTISSLEPEDFAVYYCQQWSRNPPTFGGGTKVEIK |
